We go through six substances from PMC9140718.

Test [1] concerns the target plasma FXI of Maine Coon cats homozygous for the M516 variant (feline (endogenous in Maine Coon cat plasma)). The test is described as follows: non-reducing SDS-PAGE with Western blot; citrated plasma (1 µL) on non-reducing 7.5% polyacrylamide gels; detected with biotinylated IgG 14E11 and streptavidin-horseradish peroxidase.
Test [2] deals with plasma FXI of Maine Coon cats homozygous for wild-type FXI (feline (endogenous in Maine Coon cat plasma)). Described as above.
Test [3] concerns the target plasma-derived human FXI (pFXI) (human). Briefly: SDS-PAGE under non-reducing and reducing conditions; purified FXI on a 7.5% polyacrylamide gel, Coomassie blue stained; homodimer unreduced, monomer reduced.
Test [4] deals with recombinant variant feline factor XI (fFXI-M516) (feline (Felis catus)). The test is described as above.
In test [5] the target is recombinant wild-type feline factor XI (fFXI-V516) (feline (Felis catus)). Described as above.
The target of test [6] is recombinant wild-type human factor XI (hFXI-V516) (human). The test is described as above.

As usually defined, the stoichiometry N is the number of molecules, sites or subunits per partner or assembly. In test [1], “plasma FXI of Maine Coon cats homozygous for the M516 variant (natural protein)” showed a stoichiometry N of 2.

For the substance “plasma FXI of Maine Coon cats homozygous for wild-type FXI (natural protein)”, the stoichiometry N in test [2] was 2.

In test [3], “plasma-derived human FXI (pFXI) (natural protein)” came in with a stoichiometry N of 2.

“recombinant variant feline factor XI (fFXI-M516) (natural protein)”: the stoichiometry N in test [4] worked out at 2.

As for “recombinant wild-type feline factor XI (fFXI-V516) (natural protein)”, in test [5], the stoichiometry N was 2.

“recombinant wild-type human factor XI (hFXI-V516) (natural protein)”: in test [6], the stoichiometry N worked out at 2.
